The target of assay [1] is 4-1BB on CD3/CD28-activated human CD4 T cells (human (endogenous in CD4 T cells)) (UniProt Q07011).
For assay [2], the target named is recombinant human galectin-8N (human). Nature of the assay: fluorescence polarisation; fluorescence anisotropy in solution, by inhibition: fixed galectin (0.2-2.5 µM) with 0.02 µM of its fluorescent probe, in the presence of 0.07-[…] (rh)4-1BB Fc or (rh)IgG1 Fc; average Kd from the points with ≥ 15% inhibition.
Assay [3] addresses recombinant human galectin-9C (human). The description is as above.
The target of assay [4] is recombinant human galectin-9N (human). The assay is described as above.

Chain of recombinant human (rh)4-1BB Fc chimera protein (Q07011 24-186, change not shown): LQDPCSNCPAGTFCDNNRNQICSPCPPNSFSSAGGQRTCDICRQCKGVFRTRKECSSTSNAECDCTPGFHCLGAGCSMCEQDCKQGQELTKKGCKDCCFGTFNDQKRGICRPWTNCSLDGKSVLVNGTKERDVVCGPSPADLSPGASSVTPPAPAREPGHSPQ
Chain of Gal-3 in normal human plasma (P17931 whole entry): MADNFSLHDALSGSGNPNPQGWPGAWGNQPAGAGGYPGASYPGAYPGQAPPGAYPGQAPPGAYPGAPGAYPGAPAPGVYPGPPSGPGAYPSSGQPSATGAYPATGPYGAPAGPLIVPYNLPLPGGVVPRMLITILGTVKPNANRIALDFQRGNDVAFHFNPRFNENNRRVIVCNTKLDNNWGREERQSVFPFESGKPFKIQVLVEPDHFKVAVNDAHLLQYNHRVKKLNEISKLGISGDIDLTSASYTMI
Chain of 4-1BB on CD3/CD28-activated human CD4 T cells (human (endogenous in CD4 T cells)) (Q07011 24-255): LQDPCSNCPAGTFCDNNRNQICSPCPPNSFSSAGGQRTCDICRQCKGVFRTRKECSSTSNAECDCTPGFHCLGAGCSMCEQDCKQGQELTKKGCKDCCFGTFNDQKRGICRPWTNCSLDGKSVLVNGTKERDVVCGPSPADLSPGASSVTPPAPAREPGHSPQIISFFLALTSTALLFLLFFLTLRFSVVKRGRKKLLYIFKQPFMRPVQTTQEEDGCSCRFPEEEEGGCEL

In assay [1], “Gal-3 in normal human plasma (from UniProt P17931 1-250) (natural protein)” gave a fold decrease in fraction of 4-1BB+CD4+ T cells that produced TNFα upon 4-1BBL stimulation, after pre-incubation of activated CD4 T-cells with plasma of 3.8 fold.

Take “recombinant human (rh)4-1BB Fc chimera protein (from UniProt Q07011 24-186) (Fc fusion)”: the Kd in assay [2] turned out to be 3.59 µM; in assay [3], 2.24 µM; in assay [4], 1.39 µM.

A word on the Kd: it is a measure of binding affinity in units of concentration.

(Values after article PMC9263355.)
